Data: doi:10.1101/2020.05.08.084087 (bioRxiv, 2020)
Positions count from the first letter of the chain named.

Experiments:
[1] = molecular target: T1, ABCB1-YFP E1.007A (Arabidopsis, UniProt Q9ZR72 1-1286, E1.007A); test: FRET or BRET
T1 sequence: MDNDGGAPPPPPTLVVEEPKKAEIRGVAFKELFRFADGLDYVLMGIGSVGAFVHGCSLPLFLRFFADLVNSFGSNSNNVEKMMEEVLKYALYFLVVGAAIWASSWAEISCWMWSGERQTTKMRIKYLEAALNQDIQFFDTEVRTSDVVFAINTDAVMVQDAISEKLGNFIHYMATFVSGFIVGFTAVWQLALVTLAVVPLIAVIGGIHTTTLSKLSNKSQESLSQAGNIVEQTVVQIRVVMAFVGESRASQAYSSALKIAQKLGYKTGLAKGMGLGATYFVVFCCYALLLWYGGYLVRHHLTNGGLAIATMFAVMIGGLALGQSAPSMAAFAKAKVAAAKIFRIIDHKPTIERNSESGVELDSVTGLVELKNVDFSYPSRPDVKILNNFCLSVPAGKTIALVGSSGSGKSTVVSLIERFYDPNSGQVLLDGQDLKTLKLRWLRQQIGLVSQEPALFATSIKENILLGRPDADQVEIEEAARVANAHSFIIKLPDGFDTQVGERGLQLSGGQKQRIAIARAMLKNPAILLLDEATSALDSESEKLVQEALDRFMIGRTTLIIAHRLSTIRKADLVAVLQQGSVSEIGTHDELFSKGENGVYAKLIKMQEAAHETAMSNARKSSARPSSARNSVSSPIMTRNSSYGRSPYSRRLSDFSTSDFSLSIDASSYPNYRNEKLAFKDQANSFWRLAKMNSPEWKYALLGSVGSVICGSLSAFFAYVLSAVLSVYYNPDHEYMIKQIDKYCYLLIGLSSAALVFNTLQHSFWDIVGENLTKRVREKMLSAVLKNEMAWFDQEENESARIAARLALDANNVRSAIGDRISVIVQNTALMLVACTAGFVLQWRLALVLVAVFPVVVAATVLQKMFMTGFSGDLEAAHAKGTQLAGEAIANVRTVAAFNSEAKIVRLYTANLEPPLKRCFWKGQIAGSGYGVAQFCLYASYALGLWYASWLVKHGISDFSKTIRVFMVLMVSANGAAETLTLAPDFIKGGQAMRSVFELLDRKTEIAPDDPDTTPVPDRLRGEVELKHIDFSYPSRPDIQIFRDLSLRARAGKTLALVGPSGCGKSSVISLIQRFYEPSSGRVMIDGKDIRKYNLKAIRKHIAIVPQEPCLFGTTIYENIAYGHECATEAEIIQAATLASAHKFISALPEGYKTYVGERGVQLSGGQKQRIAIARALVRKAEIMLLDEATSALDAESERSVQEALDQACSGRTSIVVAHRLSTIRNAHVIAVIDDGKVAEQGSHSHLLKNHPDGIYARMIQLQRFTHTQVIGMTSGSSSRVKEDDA

[2] = molecular target: T2, ABCB1-YFP P1.008G (Arabidopsis, UniProt Q9ZR72 1-1286, P1.008G); test: FRET or BRET
T2 sequence: T1 sequence with A1007E, P1008G

B1: TWD1-Rluc (natural protein)
chain: MDESLEHQTQTHDQESEIVTEGSAVVHSEPSQEGNVPPKVDSEAEVLDEKVSKQIIKEGHGSKPSKYSTCFLHYRAWTKNSQHKFEDTWHEQQPIELVLGKEKKELAGLAIGVASMKSGERALVHVGWELAYGKEGNFSFPNVPPMADLLYEVEVIGFDETKEGKARSDMTVEERIGAADRRKMDGNSLFKEEKLEEAMQQYEMAIAYMGDDFMFQLYGKYQDMALAVKNPCHLNIAACLIKLKRYDEAIGHCNIVLTEEEKNPKALFRRGKAKAELGQMDSARDDFRKAQKYAPDDKAIRRELRALAEQEKALYQKQKEMYKGIFKGKDEGGAKSKSLFWLIVLWQWFVSLFSRIFRRHRVKAD
reduction of the BRET ratio against Wt ABCB1-YFP [1]: ~39%
reduction of the BRET ratio against Wt ABCB1-YFP [2]: ~17%
